Results reported in patent US20070105796A1.
One block for each substance: values may come before it.

Biological target: TERT (telomerase reverse transcriptase), catalytic subunit of telomerase (human) (UniProt O14746)
Test: cell-based or functional assay

Chain of TERT (telomerase reverse transcriptase), catalytic subunit of telomerase (human) (O14746 whole entry): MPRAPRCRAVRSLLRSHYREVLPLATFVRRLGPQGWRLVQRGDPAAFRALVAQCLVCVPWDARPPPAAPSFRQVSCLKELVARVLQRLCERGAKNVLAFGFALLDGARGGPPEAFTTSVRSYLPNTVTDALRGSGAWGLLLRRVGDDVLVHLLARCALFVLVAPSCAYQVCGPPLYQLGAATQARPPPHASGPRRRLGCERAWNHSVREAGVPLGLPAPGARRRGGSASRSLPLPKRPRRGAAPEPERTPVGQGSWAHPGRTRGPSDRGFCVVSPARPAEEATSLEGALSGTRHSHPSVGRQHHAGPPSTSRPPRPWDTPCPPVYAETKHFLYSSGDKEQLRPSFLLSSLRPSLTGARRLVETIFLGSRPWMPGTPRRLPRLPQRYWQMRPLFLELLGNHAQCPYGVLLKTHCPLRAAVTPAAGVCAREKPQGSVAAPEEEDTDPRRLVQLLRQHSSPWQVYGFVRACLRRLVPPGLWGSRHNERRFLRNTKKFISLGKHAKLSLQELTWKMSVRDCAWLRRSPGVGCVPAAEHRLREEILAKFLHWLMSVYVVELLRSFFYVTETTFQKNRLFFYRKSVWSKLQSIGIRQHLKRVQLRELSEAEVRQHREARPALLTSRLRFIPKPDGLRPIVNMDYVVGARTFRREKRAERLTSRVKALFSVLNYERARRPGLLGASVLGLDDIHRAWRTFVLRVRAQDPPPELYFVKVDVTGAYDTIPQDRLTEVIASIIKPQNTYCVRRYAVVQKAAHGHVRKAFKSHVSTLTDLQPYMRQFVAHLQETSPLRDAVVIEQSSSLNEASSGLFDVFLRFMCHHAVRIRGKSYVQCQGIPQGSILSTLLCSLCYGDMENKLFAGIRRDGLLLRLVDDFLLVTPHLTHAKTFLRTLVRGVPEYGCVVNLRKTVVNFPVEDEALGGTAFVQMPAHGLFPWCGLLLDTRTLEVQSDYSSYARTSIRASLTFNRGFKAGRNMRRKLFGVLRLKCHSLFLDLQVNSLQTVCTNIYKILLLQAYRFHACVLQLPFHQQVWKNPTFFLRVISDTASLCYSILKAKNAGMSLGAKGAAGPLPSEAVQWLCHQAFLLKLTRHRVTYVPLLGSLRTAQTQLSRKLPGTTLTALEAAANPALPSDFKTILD

telomerase activity (TRAP method) in dephosphorylated HEK293 cell nuclear extract after phosphorylation reaction: 1.5 fold
Substance: GST fusion active MAPKAPK3 (T201E/T313E) (from UniProt Q16644 1-382) (enzyme)

intracellular telomerase activity (TRAP method) in HEK293T cells against the negative control vector: 1.4 fold
Substance: N-terminal HA-tagged active MAPKAPK3 (T201E/T313E) (from UniProt Q16644 1-382) (enzyme)

intracellular telomerase activity (TRAP method) in HEK293T cells: 0.7 fold
Substance: N-terminal HA-tagged inactive MAPKAPK3 (T201A/T313A) (from UniProt Q16644 1-382) (enzyme)
